Results: PMC11672684 (Cell Reports, 2024)

Experiments:
[1] = target: T1, H1 A/New Caledonia/20/1999 HA (influenza A virus A/New …); assay: ELISA + BLI; details: both partners purified
[2] = target: T1, H1 A/New Caledonia/20/1999 HA; assay: cryo-EM structure; details: both partners purified

B1: 43_S0008 (antibody, V domains shown)
VH: QVQLVQSGAEVKKPGSSVKVSCKASGGTFRTFGISWVRQAPGQGLEWMGWIIPIIGTPNYAQKFQGRVIITADESSNTAYMELNSLKSEDTAVYYCAKEGRALLRYFDWLPLDAFDIWGQGTMVTVSS
VL: DIVLTQTPLSLPVSLGDQASISCRSSQSLVHSDGNTYLHWYLQKPGQSPKLLIYKVSNRFSGVPDRFSGSGSGTDFTLKISRVEAEDLGVYFCSQSTHVPPLTFGAGTKLELK
notes: also called mAb 43_S0008; IGHV1-69 + IGHD3-9 mAb 43_S0008; source: Expi293 cells, purified (protein A)
**Q.** Does B1 bind [1]?
**A.** binds

B2: Fab 43_S0008 (Fab, V domains shown)
VH: QVQLVQSGAEVKKPGSSVKVSCKASGGTFRTFGISWVRQAPGQGLEWMGWIIPIIGTPNYAQKFQGRVIITADESSNTAYMELNSLKSEDTAVYYCAKEGRALLRYFDWLPLDAFDIWGQGTMVTVSS
VL: DIVLTQTPLSLPVSLGDQASISCRSSQSLVHSDGNTYLHWYLQKPGQSPKLLIYKVSNRFSGVPDRFSGSGSGTDFTLKISRVEAEDLGVYFCSQSTHVPPLTFGAGTKLELK
notes: also called 43_S0008 Fab
**Q.** Does B2 bind [2]?
**A.** binds
